The source of these data is the RNAGym collection of RNA variant scans (doi:10.7554/elife.80360).

B1: HDV Ribozyme (parent)
chain: GGCCGGCAUGGUCCCAGCCUCCUCGCUGGCGCCGGCUGGGCAACAUUCCGAGGGGACCGUCCCCUCGGUAAUGGCGAAUGGGACCCA

The variants in this data set derive from B1. The data set can be described thus: self-cleavage, relative activity (ratio to wild type); higher = more cleavage; co-transcriptional.
Take GGCCGGCAUAGUCCAAGCCUCCUCGCUGGCGCCGGCUGGGCAACAUUCCGAGGGGACCGUCCCCUCGGUAAUGGCGAAUGGGACCCA: the self-cleavage came out at 0.208. As for GGCCGGCAUGGUCCCAGCCUCCUCGAUGGCGCCGGCUGGGCAACAUUCCGGGGGGACCGUCCCCUCGGUAAUGGCGAAUGGGACCCA, the figure is 1.11; as for UGCCGGCAUGGUCCCAGCCUCCUCGCUGGCGCCGGAUGGGCAACAUUCCGAGGGGACCGUCCCCUCGGUAAUGGCGAAUGGGACCCA, 0.158. As for GGCCGGCAUGGUCCCAGCCUCCUCGCUGGCGCCGGCUGGGCAACAUUCUGAGGGGACCGUCCACUCGGUAAUGGCGAAUGGGACCCA, the figure is 1; as for GGCCGGCAUGGUCCCAGUCUCCUCGCUGACGCCGGCUGGGCAACAUUCCGAGGGGACCGUCCCCUCGGUAAUGGCGAAUGGGACCCA, 1.06; as for GGCCGGCAUGGUCCCAGCCUCCUCCCUGGCGCCGGCUGGGCAACAUUCCGAGGGGACCGUCCCCUCGGUAAUGGAGAAUGGGACCCA, 0.

Take GGCCGGCAUGGUCCCAGCCUCCUCCCUGGCGCCGGCUGGGCAACAUUCCGAGGGGAGCGUCCCCUCGGUAAUGGCGAAUGGGACCCA: the self-cleavage was 0.119. As for GGCCGGCAUGGUCCCAGCCUCCACGCUGGCGCCGGCUGGGCAACAUUCCGAGGGGACCGUCCCCUCGGUAAUGUCGAAUGGGACCCA, the figure is 0.348; as for GGCCGGCAUGGUCCCAGCCUCCUCGCUGGCGCCGGCUGGGCAACAUUCCGAGGGGACCGUCCCCUCGGUAACGGCGAAUGGGAACCA, 0.166.

Consider GGCCGGCAUGGUCCCAGCCUCCUCGCUGGCGUCGGCUGGGCAACAUUCCGAGGGGACCGUCCCCUCGGUAAUGGCGAAAGGGACCCA, for which the self-cleavage is 0.653. GGCCGGCAUGGUCCCAGGCUCCUCGCUGGCGCCGGCUGGGCAACAUUCCGAGGGGACCGUCCCCUCGGUAAUGGCGAAUGGGACCCG: the self-cleavage was determined as 0.12. Regarding GGCCGGCAUGGUCCCCGCCUCCUCGCUGGCGCCGGCAGGGCAACAUUCCGAGGGGACCGUCCCCUCGGUAAUGGCGAAUGGGACCCA, the self-cleavage worked out at 0.

Turning to GGCCGCCAUGGUCCCAGCCUCCUCGCUGGCGCCGGCUGGGCAACAUUCCGAGGGGACCGUCCCCUCGUUAAUGGCGAAUGGGACCCA, the self-cleavage came to 0.277. For the variant GGCCGGCAUGGCCCCAGCCUCCUCGCUGGCGCCGGCUGGGCAACAUUCCGAGGGGAACGUCCCCUCGGUAAUGGCGAAUGGGACCCA, the self-cleavage is 0.268.

GGCCGGCAUGGUCCCAGCCUCCUCGCUGGCGCCGGCUGGACAACAUUCCGAGGGGACCGUCCCCUCGGUAAUGGCGGAUGGGACCCA: the self-cleavage turned out to be 1.05. For the variant GGCCGGCAUUGUCCCAGCCUCCUCGCUGGCGCCGGCUGGGCAACAUUCCGAGGGGACCGUCCCCUAGGUAAUGGCGAAUGGGACCCA, the self-cleavage worked out at 0.895.

GGCCGGGAUGGUCCCAGCCUCCUCGCUGGCGCCGGCUGGGCAACAUUCCGAGGGGACCGUCCCCGCGGUAAUGGCGAAUGGGACCCA: the self-cleavage was determined as 0.199. As for GGCCCGCAUGGUCCCUGCCUCCUCGCUGGCGCCGGCUGGGCAACAUUCCGAGGGGACCGUCCCCUCGGUAAUGGCGAAUGGGACCCA, the figure is 0.237; as for GGCCGGCGUGGUCCCAGCCUCCUCGCUGGCGCCGGCUGGGCAACAAUCCGAGGGGACCGUCCCCUCGGUAAUGGCGAAUGGGACCCA, 0.723; as for GGCCGGCAUGGUCCCAGCCUCCUUGCUGGCGCAGGCUGGGCAACAUUCCGAGGGGACCGUCCCCUCGGUAAUGGCGAAUGGGACCCA, 0.0845.

Take GGCCGGCAUGGACCCAGGCUCCUCGCUGGCGCCGGCUGGGCAACAUUCCGAGGGGACCGUCCCCUCGGUAAUGGCGAAUGGGACCCA: the self-cleavage came to 0.0405. As for GGCCGGCAUGGCCCCAGCCUCCUCGCUGGCGCCGGCUGGGAAACAUUCCGAGGGGACCGUCCCCUCGGUAAUGGCGAAUGGGACCCA, the figure is 0.388.

For the variant GGCCGGCAUCGUCCCAGCCUCCUCGCUGGCGCCGGCUGGGCAACAUUCCGAGGGAACCGUCCCCUCGGUAAUGGCGAAUGGGACCCA, the self-cleavage was 1.11. GGCCGGCAUGGUCACAGCCUCCUCGCUGGCGCCGGCUGGGCAACAUUCCGAGGGGACCGUCCCCUCGGUAAUGGCGAAUGGGGCCCA: the self-cleavage was determined as 0.475.

Take GGCCGGCAUGGUCCCAGCCUCCUCGCUGGCGCCGGCUGGGCAGCAUUCCGAGGGGACCGUCCCCUCGGUAAUGGCGAAUGCGACCCA: the self-cleavage is 0. For the variant GGCCGGCAUGGUCCCAGCCUCCUCGCUGGCGCCGGCUGGGCAACAUUCCGAUGGGACGGUCCCCUCGGUAAUGGCGAAUGGGACCCA, the self-cleavage was 0.95. Take GGCCGGCAUGGUCCCAGCCUCCUCGCUGGCGCCGGCUGGGCAACAUUCCGAGGGGACCGUCCUCUCGGUAAUGGCGAAUGGGAACCA: the self-cleavage amounted to 0.76. Turning to GGCCGGCAUGGUCCCAGCCUCCUCGCUGGCUCCGGCUGGGCAACAUUCGGAGGGGACCGUCCCCUCGGUAAUGGCGAAUGGGACCCA, the self-cleavage stood at 0.231. In the case of GGCCGGCAUGGUCUCAGCCUCCUCGCUGGCGCCGGCUGUGCAACAUUCCGAGGGGACCGUCCCCUCGGUAAUGGCGAAUGGGACCCA it was 0.895. As for GGCCGGCAUGGUCCCUGCCUCCCCGCUGGCGCCGGCUGGGCAACAUUCCGAGGGGACCGUCCCCUCGGUAAUGGCGAAUGGGACCCA, the figure is 0.831. As for GGCCGGCAUGGUCCCAGCCUCCUCGCUGGCGCCGGCUGGGCAACAUUCCGAGGGUACCCUCCCCUCGGUAAUGGCGAAUGGGACCCA, the figure is 1.02. With GGCCGGCAUGGUCCCAGCCUCCUCGCUGGCGCCGCCUGGGCAACAUUCCGAGGGGACCGACCCCUCGGUAAUGGCGAAUGGGACCCA, the self-cleavage came to 0.192. In the case of GGCCGGCAUGGUCCCAGCCUCCUCGCUGGCGCCGGCUGGGCAACAUUCCGAGGGGACCGACCCCUCGGUAAUGUCGAAUGGGACCCA it was 0.521; in that of GGCCGGCAUGGUCCCAGCCUCCUCGCUGGCGCCGGCUGGGCUACAUUCCGAGGGGACCGUCCCCUCCGUAAUGGCGAAUGGGACCCA, 0.415. Consider GGCCGGCAUGGUCCCAGCCUCCUCGCUGUCGCCGGCUGGGCAACAUUCCGAAGGGACCGUCCCCUCGGUAAUGGCGAAUGGGACCCA, for which the self-cleavage stood at 0.168. In the case of GGCCGGCAUGGACCCAGCCUCCUCGCUGGCGCCGGCUGGGCAACAUUCCGAGGGGACCGUCCCCUGGGUAAUGGCGAAUGGGACCCA it was 0.375; in that of GGCCGGCAUGGUCCCAGCCUCCUCGCUGGCGCCGGCUGGGCAACAUUCCGAGGGGACCGUCCCCUCGGUAAUGUCGCAUGGGACCCA, 0.123; in that of GGCCGGCAUGGUCCCAGCCACCUCGCUGGCGCCGGCUGGGCAACAUUCCGAGGGGACCGUCCCCUCGGUAAUGGCGAAGGGGACCCA, 0.0665. In the case of GGAUGGCAUGGUCCCAGCCUCCUCGCUGGCGCCGGCUGGGCAACAUUCCGAGGGGACCGUCCCCUCGGUAAUGGCGAAUGGGACCCA it was 0.0341; in that of GGCCUGCAUGGACCCAGCCUCCUCGCUGGCGCCGGCUGGGCAACAUUCCGAGGGGACCGUCCCCUCGGUAAUGGCGAAUGGGACCCA, 0.332. In the case of GGCCGGCAUGGUCCCAGCCUCCUCGCUGGCGCCGGCUGGACAACAUUCCGAGGGGACCGUCCCCUCGGUAAGGGCGAAUGGGACCCA, the self-cleavage was 0.437. Turning to GGCCGGCAUGGUCCCAGCCGCCUCGCUGGCGCCGGCUGGGAAACAUUCCGAGGGGACCGUCCCCUCGGUAAUGGCGAAUGGGACCCA, the self-cleavage came to 0.145.

On to GGCCGGCAUGGUCCCAGCCUCCUCUCUGGCGCCGGCUGGGCAACAUUCCGAGGGGACCGUCCGCUCGGUAAUGGCGAAUGGGACCCA, for which the self-cleavage amounted to 0.203.

Turning to GGCCGGCAUGGUCCCAGCCUCCUCGCUGGCGCCGGCUGGGCAACAUUCCGCGGGGACCGUCCCCUCGGUAAUGGCGUAUGGGACCCA, the self-cleavage is 0.429. In the case of GGCCGGCAUGGUCCCAGCCUCCUCGCUGGCGCCGGCUGGGCAACAUUCUGAGGGGACCGUCCCCUCGGUAAUGGCGAAAGGGACCCA it was 0.811; in that of GGCCGGCAUGGUCCCAGCCUCCUCGCUGGCGCAGGCUGGGCAACAUUCCGAGGGGACCGUCCCCUCGGUAAUGGCGAAUGGGACCCG, 0.14. As for GGCCGGUAUGGUCCCAGCCUCCUCGCUGGCGCCGGCUGGUCAACAUUCCGAGGGGACCGUCCCCUCGGUAAUGGCGAAUGGGACCCA, the figure is 0.821. As for GGCCGGCAUGGUCCCAGCCUCCUCGCUGGCGCCGGCUGGGCAACAUUCCGAGAGGACCGUCCCCUCGGUAAUUGCGAAUGGGACCCA, the figure is 0.304; as for GGCCGGCAUGGUCCCAGCCUCCUCGCUGGCGCCGGCUGGGCAACAUUCCGAGGGGAGCGUUCCCUCGGUAAUGGCGAAUGGGACCCA, 0.967. Take GGCCGGCAUGGUCCCAGCCUCCUCGCUGGCGCCGGCUGGGCAACAUUCCGAGGGGACCGUCCCCUCGGUAAUCGCGAAUGGGACGCA: the self-cleavage stood at 0.527. As for GGCCGGCAUGGUCCCAGCCUCCUCGCUGGCGCCGGCUGUGCAACAUUCCGAGGGGACCGACCCCUCGGUAAUGGCGAAUGGGACCCA, the figure is 0.623; as for GGCCGGAAUGGUCCCAGCCUCCUCGCUGGCGCCGGCUGGGCAACAUUCCGAGGGGACCGUCCCCUCGGUAAUGGCGAAUGGGAGCCA, 0.128; as for GGCCGGCAUGGUCCCAGCCUACUCGCUGGCGCCGGCUAGGCAACAUUCCGAGGGGACCGUCCCCUCGGUAAUGGCGAAUGGGACCCA, 0.0237.

GGCCGGCAUGGUCCCAGCCUCCUCGCUGGCGCUGGCUGGGCAACAUUCCGAGGGGACCGUCCCCUCGGUAAUGGCGAAUGGUACCCA: the self-cleavage is 0.266. With GGCCGGCAUGGUCCCAGCCUCCUCGCUGGCGCCGGCUGGGCAACAUUCCGAGGGGACCGUCCCCUCGGUAAUGGCGAAUGGGAACCU, the self-cleavage worked out at 1.02. In the case of GGCCGCCAUGGUCCCAGCCUCCUCGCUGGCGCCGGCUGGGCAACAUUCUGAGGGGACCGUCCCCUCGGUAAUGGCGAAUGGGACCCA it was 0.489. As for GGCCGGCAUGGUCCCAGCCUCCUCGCUGGCGCCGGCGGGGCAACAUUCCGAGGGGACCGUCCCCACGGUAAUGGCGAAUGGGACCCA, the figure is 0.101. In the case of GGCCGGCAUGGUCCCAGCCUCCUCGCUGGCGCCGGCUGGGCAACAUUCCGAGGGGACCGUCCCCUCGGUAAUGGCGUAUGGGACGCA it was 0.299; in that of GGCCGGCAUGGUCACAGCCUCCUCGCUGGAGCCGGCUGGGCAACAUUCCGAGGGGACCGUCCCCUCGGUAAUGGCGAAUGGGACCCA, 0.104; in that of GGCCGGCAUGGUCUCAGACUCCUCGCUGGCGCCGGCUGGGCAACAUUCCGAGGGGACCGUCCCCUCGGUAAUGGCGAAUGGGACCCA, 0. As to GGCCGGCAUGGUCCCAGCCUCCUCACUGGCGCCGGCUGGGCAACAUUCCGAGGGGACCGUCCCCUCGGUAAUGGCGAAUGGUACCCA, the self-cleavage was found to be 0.119. Take GGCCGGCAUGGUCCCAGCCUCCUCGCUGACGCCGGCUGGGCAACAUUCCGAGGGGACCGUCCCCUCGGUAAUGGCGAAUGGGACCCG: the self-cleavage came out at 0.135.

For GGCCGGCAUGGUCCCAGCCUCCUCGCUGGCGCCCGCUGAGCAACAUUCCGAGGGGACCGUCCCCUCGGUAAUGGCGAAUGGGACCCA, the self-cleavage came to 0.0536. In the case of GGCCGGCAUGGUCCCAGCCUCCUCGCUGGCGCCGGCUGGGCAACAUUCCGAGGGGACCGGCCCCUCGGUAAUAGCGAAUGGGACCCA, the self-cleavage was found to be 0.591.
